{"source": "patent US20050214312A1", "about": "(ANTIGENICS, published 2005)", "key": {"[1]": {"biological_target": "T1, recombinant human or murine heat shock protein 70 (hsp70) (human or murine)", "T1 sequence (A8K5I0 entry or part of it)": "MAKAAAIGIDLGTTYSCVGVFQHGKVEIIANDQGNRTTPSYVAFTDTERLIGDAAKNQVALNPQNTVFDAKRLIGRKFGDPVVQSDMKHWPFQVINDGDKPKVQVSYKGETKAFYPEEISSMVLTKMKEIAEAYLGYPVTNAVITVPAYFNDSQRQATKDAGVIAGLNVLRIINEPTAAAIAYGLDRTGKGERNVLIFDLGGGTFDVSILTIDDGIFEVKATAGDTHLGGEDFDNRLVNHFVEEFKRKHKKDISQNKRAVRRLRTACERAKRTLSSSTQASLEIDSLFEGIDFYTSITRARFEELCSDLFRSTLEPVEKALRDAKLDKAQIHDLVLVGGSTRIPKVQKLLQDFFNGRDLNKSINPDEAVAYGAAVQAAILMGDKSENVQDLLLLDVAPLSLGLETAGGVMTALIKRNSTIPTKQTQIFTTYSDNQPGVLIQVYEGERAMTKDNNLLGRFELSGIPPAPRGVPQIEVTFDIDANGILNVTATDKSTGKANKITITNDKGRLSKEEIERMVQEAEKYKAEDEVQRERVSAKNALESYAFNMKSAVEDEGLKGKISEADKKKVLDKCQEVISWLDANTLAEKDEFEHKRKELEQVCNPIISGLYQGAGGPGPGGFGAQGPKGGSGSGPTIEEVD", "assay": "binding inhibition assay (Hill plot) against labeled reference hybrid antigen on hsp70"}, "[2]": {"biological_target": "T1, recombinant human or murine heat shock …", "assay": "binding affinity for HSP70, binding inhibition assay"}}}
{"binder": "SIINFEKL", "note": "[SIINFEKL (ovalbumin amino acids 257-264)]", "values": [{"measurement": "Kd", "setting": "[1]", "value": 235000, "unit": "nM"}]}
{"binder": "NLLRLTGWFFRKSIINFEKL", "values": [{"measurement": "Kd", "setting": "[2]", "value": 2200, "unit": "nM"}, {"measurement": "Kd", "setting": "[1]", "value": 2200, "unit": "nM"}]}
{"binder": "NLLRLTGWFRSIINFEKL", "values": [{"measurement": "Kd", "setting": "[2]", "value": 1500, "unit": "nM"}]}
{"binder": "NLLRLTGWRKSIINFEKL", "values": [{"measurement": "Kd", "setting": "[2]", "value": 800, "unit": "nM"}, {"measurement": "Kd", "setting": "[1]", "value": 800, "unit": "nM"}]}
{"binder": "NLLRLTGWQLKSIINFEKL", "values": [{"measurement": "Kd", "setting": "[2]", "value": 400, "unit": "nM"}]}
{"binder": "NLLRLTGWAKVLSIINFEKL", "values": [{"measurement": "Kd", "setting": "[2]", "value": 2000, "unit": "nM"}]}
{"binder": "NLLRLTGWGSGSIINFEKL", "values": [{"measurement": "Kd", "setting": "[2]", "value": 1600, "unit": "nM"}, {"measurement": "Kd", "setting": "[1]", "value": 1600, "unit": "nM"}]}
